Values joined by “and” are separate entries in the source; they are usually repeats but may differ in a detail not shown here. Equal values may be shown once. Read-outs that look alike come from different tables or passages of the source.
T1: mouse Fc-tagged mouse CD137 (R&D Systems, cat. 937-4B-050) (mouse, UniProt P20334 24-187)
T1 construct: also called mouse CD137-Fc chimeric protein
T1 sequence (looked up): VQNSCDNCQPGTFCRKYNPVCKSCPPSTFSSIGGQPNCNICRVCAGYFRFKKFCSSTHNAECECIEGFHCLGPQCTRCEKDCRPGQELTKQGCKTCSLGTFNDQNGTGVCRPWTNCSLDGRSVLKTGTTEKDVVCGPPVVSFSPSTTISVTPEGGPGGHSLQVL

B1: PRO1059 (33-03-G02 IgG1 LC with 38_02_A04 sc01 scFv, PDL1/CD137(scFv) silent Morrison) (bispecific antibody)
light: DIQMTQSPSSLSASVGDRVTITCQASQSINDYLAWYQQKPGKAPKLLIYKASTLASGVPSRFSGSGSGTDFTLTISSLQPEDFATYYCQQGYIITDIDNVFGTGTKVTVLGTVAAPSVFIFPPSDEQLKSGTASVVCLLNNFYPREAKVQWKVDNALQSGNSQESVTEQDSKDSTYSLSSTLTLSKADYEKHKVYACEVTHQGLSSPVTKSFNRGECGGGGSGGGGSIQMTQSPSSLSASVGDRVTITCQASQSINNVLAWYQQKPGKAPKLLIYRASTLASGVPSRFSGSGSGTDFTLTISSLQPEDFATYYCQSSYGNYGDFGTGTKVTVLGGGGGSGGGGSGGGGSGGGGSQVQLQESGPGLVKPSETLSLTCKVSGFSFSNSYWICWIRQPPGKGLEWIGCTFVGSSDSTYYANWAKGRVTISVDSSKNQFSLKLSSVTAADTAVYYCARHPSDAVYGYANNLWGQGTLVTVSS
heavy: QVQLQESGPGLVKPSETLSLTCKVSGFSFSSGYDMCWIRQPPGKGLEWIGCVVAGSVDITYYASWAKGRVTISVDSSKNQFSLKLSSVTAADTAVYYCARKDAYSDAFNLWGQGTLVTVSSASTKGPSVFPLAPSSKSTSGGTAALGCLVKDYFPEPVTVSWNSGALTSGVHTFPAVLQSSGLYSLSSVVTVPSSSLGTQTYICNVNHKPSNTKVDKRVEPKSCDKTHTCPPCPAPEAAGGPSVFLFPPKPKDTLMISRTPEVTCVVVDVSHEDPEVKFNWYVDGVEVHNAKTKPREEQYNSTYRVVSVLTVLHQDWLNGKEYKCKVSNKALGAPIEKTISKAKGQPREPQVYTLPPSREEMTKNQVSLTCLVKGFYPSDIAVEWESNGQPENNYKTTPPVLDSDGSFFLYSKLTVDKSRWQQGNVFSCSVMHEALHNHYTQKSLSLSPGK
notes: IgG1 with scFv fused to the light chain; also called Morrison-L
B2: PRO1060 (33-03-G02 IgG1 HC with 38_02_A04 sc01 scFv, PDL1/CD137(scFv) silent Morrison) (bispecific antibody)
light: DIQMTQSPSSLSASVGDRVTITCQASQSINDYLAWYQQKPGKAPKLLIYKASTLASGVPSRFSGSGSGTDFTLTISSLQPEDFATYYCQQGYIITDIDNVFGTGTKVTVLGTVAAPSVFIFPPSDEQLKSGTASVVCLLNNFYPREAKVQWKVDNALQSGNSQESVTEQDSKDSTYSLSSTLTLSKADYEKHKVYACEVTHQGLSSPVTKSFNRGEC
heavy: QVQLQESGPGLVKPSETLSLTCKVSGFSFSSGYDMCWIRQPPGKGLEWIGCVVAGSVDITYYASWAKGRVTISVDSSKNQFSLKLSSVTAADTAVYYCARKDAYSDAFNLWGQGTLVTVSSASTKGPSVFPLAPSSKSTSGGTAALGCLVKDYFPEPVTVSWNSGALTSGVHTFPAVLQSSGLYSLSSVVTVPSSSLGTQTYICNVNHKPSNTKVDKRVEPKSCDKTHTCPPCPAPEAAGGPSVFLFPPKPKDTLMISRTPEVTCVVVDVSHEDPEVKFNWYVDGVEVHNAKTKPREEQYNSTYRVVSVLTVLHQDWLNGKEYKCKVSNKALGAPIEKTISKAKGQPREPQVYTLPPSREEMTKNQVSLTCLVKGFYPSDIAVEWESNGQPENNYKTTPPVLDSDGSFFLYSKLTVDKSRWQQGNVFSCSVMHEALHNHYTQKSLSLSPGKGGGGSGGGGSIQMTQSPSSLSASVGDRVTITCQASQSINNVLAWYQQKPGKAPKLLIYRASTLASGVPSRFSGSGSGTDFTLTISSLQPEDFATYYCQSSYGNYGDFGTGTKVTVLGGGGGSGGGGSGGGGSGGGGSQVQLQESGPGLVKPSETLSLTCKVSGFSFSNSYWICWIRQPPGKGLEWIGCTFVGSSDSTYYANWAKGRVTISVDSSKNQFSLKLSSVTAADTAVYYCARHPSDAVYGYANNLWGQGTLVTVSS
notes: IgG1 with scFv fused to the heavy chain; called bivalent; also called Morrison-H
B3: PRO951 (38-27-C05 sc02 scDb-i/33-03-G02 sc01 scDb-o) (bispecific antibody)
chain: DIQMTQSPSSLSASVGDRVTITCQASQSINDYLAWYQQKPGKAPKLLIYKASTLASGVPSRFSGSGSGTDFTLTISSLQPEDFATYYCQQGYIITDIDNVFGTGTKVTVLGGGGGSEVQLVESGGGLVQPGGSLRLSCAASGFSFNNDYDMCWVRQAPGKGLEWIGCIDTGDGSTYYASWAKGRFTISRDNSKNTVYLQMNSLRAEDTAVYYCAREAASSSGYGMGYFDLWGQGTLVTVSSGGGGSGGGGSGGGGSGGGGSIQMTQSPSSLSASVGDRVTITCQSSQSVYDNNWLAWYQQKPGKAPKLLIYRASNLASGVPSRFSGSGSGTDFTLTISSLQPEDFATYYCQGTYLSSNWYWAFGTGTKVTVLGGGGGSQVQLQESGPGLVKPSETLSLTCKVSGFSFSSGYDMCWIRQPPGKGLEWIGCVVAGSVDITYYASWAKGRVTISVDSSKNQFSLKLSSVTAADTAVYYCARKDAYSDAFNLWGQGTLVTVSS
notes: scDb, PDL1 x CD137
B4: urelumab (antibody, V domains shown)
VH: QVQLQQWGAGLLKPSETLSLTCAVYGGSFSGYYWSWIRQSPEKGLEWIGEINHGGYVTYNPSLESRVTISVDTSKNQFSLKLSSVTAADTAVYYCARDYGPGNYDWYFDLWGRGTLVTVSS
VL: EIVLTQSPATLSLSPGERATLSCRASQSVSSYLAWYQQKPGQAPRLLIYDASNRATGIPARFSGSGSGTDFTLTISSLEPEDFAVYYCQQRSNWPPALTFGGGTKVEIK

What was measured:
[1] = biological target: T2, human CD137 expressed on Jurkat cells (human, UniProt Q07011 24-255); assay: cell-based or functional assay
[2] = biological target: T3, recombinant human CD137 extracellular domain (Peprotech, cat. 310-15-1MG) (human, UniProt Q07011 24-186); assay: SPR T200, Morrison format captured, ECD analyte
T3 construct: also called human CD137 ECD; CD137 ECD
Protocol: (§1) Affinity to PDL1 of the different species was determined by SPR measurements using a Biacore T200 device (GE Healthcare). An antibody specific for the Fc region of human IgGs was immobilized on a sensor chip (CM5 sensor chip, GE Healthcare) by amine-coupling. For all formats, with the exception of the Fc containing Morrison formats, PDL1-Fc chimeric protein from different species were captured by the immobilized antibody. Three-fold serial dilutions of the molecules specific for PDL1 (0.12-90 nM) were injected into the flow cells for three minutes and dissociation was monitored for 10 minutes. After each injection cycle, surfaces were regenerated with one injection of a 3 M MgCl₂ solution. The apparent dissociation (kd) and association (kₐ) rate constants and the apparent dissociation equilibrium constant (KD) were calculated using one-to-one Langmuir binding model. Affinity to CD137 of the different species was determined using the identical setup as for PDL1 with the exception that CD137-Fc chimeric proteins from different species were captured by the immobilized antibody.
(§2) The Fc containing formats were directly captured by the antibody specific for the Fc region of human IgGs. Two-fold serial dilutions of PDL1 extracellular domain or CD137 extracellular domain ranging from 90 to 0.35 nM were tested for binding to the IgG captured on the biosensor chip. After each injection cycle, surfaces were regenerated with one injection of a 3 M MgCl2 solution.

[3] = biological target: T4, human PDL1 extracellular domain (human, UniProt Q9NZQ7 19-238); assay: SPR T200, Morrison format captured, ECD analyte
T4 construct: extracellular domain; Analyte for the Fc containing Morrison formats
Protocol: as §1, §2

[4] = biological target: T2, human CD137 expressed on Jurkat cells; assay: cell-based or functional assay; remark: listed apart in the source
[5] = biological target: T2, human CD137 expressed on Jurkat cells; assay: cell-based or functional assay; remark: listed apart in the source
[6] = biological target: T2, human CD137 expressed on Jurkat cells; assay: cell-based or functional assay; remark: listed apart in the source
[7] = biological target: T2, human CD137 expressed on Jurkat cells; assay: cell-based or functional assay; remark: listed apart in the source
[8] = biological target: human PDL1-Fc chimeric protein (human, UniProt Q9NZQ7 19-238, limits assumed); assay: SPR T200, antigen-Fc captured, molecule as analyte
How it was run: (§3)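 Apparent KD, ka and kd come from a one-to-one Langmuir model. Species Fc proteins were captured on an immobilized anti-Fc surface, and analyte at 0.12-90 nM (three-fold series) was flowed 3 min with 10-min dissociation; surfaces were stripped with 3 M MgCl₂.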

[9] = biological target: T5, Fc tagged human CD137 (R&D Systems, cat. 838-4B-100) (human, UniProt Q07011 24-186); assay: SPR T200, antigen-Fc captured, molecule as analyte
T5 construct: also called CD137 Fc chimera; human CD137-Fc chimeric protein
How it was run: as §3

[10] = biological target: T6, cynomolgus monkey Fc-tagged CD137 (R&D Systems, cat. 9324-4B-100) (cynomolgus monkey, UniProt A9YYE7 24-186); assay: SPR T200, antigen-Fc captured, molecule as analyte
T6 construct: also called cynomolgus CD137-Fc chimeric protein
How it was run: as §3

[11] = biological target: T1, mouse Fc-tagged mouse CD137 (R&D …); assay: SPR T200, antigen-Fc captured, molecule as analyte
How it was run: as §3

[12] = biological target: T2, human CD137 expressed on Jurkat cells; assay: cell-based or functional assay; remark: listed apart in the source
[13] = biological target: T2, human CD137 expressed on Jurkat cells; assay: cell-based or functional assay; remark: listed apart in the source
[14] = biological target: T2, human CD137 expressed on Jurkat cells; assay: cell-based or functional assay; remark: listed apart in the source

T6 sequence (A9YYE7 entry or part of it): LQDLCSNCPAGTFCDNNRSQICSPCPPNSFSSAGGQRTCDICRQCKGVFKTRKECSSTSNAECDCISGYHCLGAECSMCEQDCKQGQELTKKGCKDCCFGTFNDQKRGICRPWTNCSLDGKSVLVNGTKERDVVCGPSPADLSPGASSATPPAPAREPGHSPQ

Row | Binder | max. activation, NF-kB reporter gene, CHO-PD-L1, 24h [1] | rel. IC50 (urelumab/test), NF-kB reporter gene, CHO-PD-L1, 24h [1] | Kd [2] | koff [2] | kon [2] | Kd [3] | koff [3] | kon [3] | EC50 NFkB-luciferase, CHO-PDL1 cells, 6 h [4] | EC50 NFkB-luciferase, CHO-PDL1 cells, 24 h [5] | EC50 NFkB-luciferase, HCC827 with IFNy stimulation [6] | EC50 NFkB-luciferase, HCC827 without IFNy stimulation [6] | EC50 NFkB-luciferase, CHO-PDL1 cells [7] | further results
1 | B1 | 189% | 0.09 ratio | 2.3 nM | 0.00042 s⁻¹ | 180000 M⁻¹ s⁻¹ | 0.056 nM | 6.5e-05 s⁻¹ | 1.2e+06 M⁻¹ s⁻¹ | – | – | – | – | – | –
2 | B2 | 144% | 0.58 ratio | 1.3 nM | 0.00039 s⁻¹ | 300000 M⁻¹ s⁻¹ | 0.036 nM | 4.6e-05 s⁻¹ | 1.3e+06 M⁻¹ s⁻¹ | 56.4 ng/mL | 80.8 ng/mL | 17.5 ng/mL | 13.6 ng/mL | – | max. activation, HCC827 +IFNg, 24h [1]: 97%; rel. IC50 (urelumab/test), HCC827 +IFNg, 24h [1]: 3.01 ratio; rel. IC50 (urelumab/test), HCC827 -IFNg, 24h [1]: 3.5 ratio
3 | B3 | – | – | – | – | – | – | – | – | – | – | – | – | 33.7 ng/mL | max. activation, NF-kB reporter gene, CHO-PD-L1 [1]: 432%; rel. IC50 (urelumab/test), NF-kB reporter gene, CHO-PD-L1 [1]: 2.35 ratio; Kd [8]: 0.07 nM; koff [8]: 0.00015 s⁻¹; kon [8]: 2.2e+06 M⁻¹ s⁻¹; Kd [9]: 4.2 nM; koff [9]: 0.0063 s⁻¹; kon [9]: 1.5e+06 M⁻¹ s⁻¹; Kd [10]: 6.9 nM; koff [10]: 0.01 s⁻¹; kon [10]: 1.5e+06 M⁻¹ s⁻¹; binding result [11]: no binding (tested: 0.12-90 nM)
4 | B4 | – | – | – | – | – | – | – | – | 56.5 ng/mL | 46.6 ng/mL | 52.8 ng/mL | 47.5 ng/mL | 79.1 ng/mL | EC50 NFkB-luciferase, CHO-PDL1 cells [12]: 86.5 ng/mL and 79.5 ng/mL and 104 ng/mL; EC50 NFkB-luciferase, HCC827 without IFNy [13]: 212 ng/mL and 110 ng/mL and 112 ng/mL; EC50 NFkB-luciferase, HCC827 with IFNy [14]: 114 ng/mL and 145 ng/mL and 108 ng/mL; EC50 NFkB-luciferase, CHO-PDL1 cells, 6 h, + HSA [4]: 77.7 ng/mL; Top of curve fit, NFkB-luciferase, CHO-PDL1 cells, 6 h, + HSA [4]: 106; EC50 NFkB-luciferase, CHO-PDL1 cells, 24 h, + HBA (so in the source) [5]: 78.2 ng/mL; Top of curve fit, NFkB-luciferase, CHO-PDL1 cells, 24 h, + HBA (so in the source) [5]: 90.5

— patent US20200332015A1 (NAMAB THERAPEUTICS, published 2020)
